According to paper doi:10.1101/2021.02.05.429362 (bioRxiv, 2021):
Values joined by “and” are separate entries in the source; they are usually repeats but may differ in a detail not shown here. Equal entries are not always repeated. Where two headings read alike, the source gives them in different places. Values belong to the binder of their own block, whether it stands above or below them. Where no end group is shown, it is not given here.

Legend:
[1] = biological target: T1, G3BP1-NTF2 (residues 1-139) (human (by the printed UniProt entry …)); assay: ITC
[2] = biological target: T1, G3BP1-NTF2 (residues 1-139); assay: ITC; remark: listed apart in the source
[3] = biological target: T1, G3BP1-NTF2 (residues 1-139); assay: ITC; remark: listed apart in the source
[4] = biological target: G3BP1-NTF2 H31A (human (by the printed UniProt entry …, UniProt Q13283, H31A)); assay: ITC
Chain of G3BP1-NTF2 H31A (human (Q13283 1-139 H31A): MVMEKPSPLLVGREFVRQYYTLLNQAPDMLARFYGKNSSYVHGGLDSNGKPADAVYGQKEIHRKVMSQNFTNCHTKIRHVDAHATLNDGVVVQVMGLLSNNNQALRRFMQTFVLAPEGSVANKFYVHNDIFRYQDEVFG

[5] = biological target: T1, G3BP1-NTF2 (residues 1-139); assay: nanoDSF
[6] = biological target: T1, G3BP1-NTF2 (residues 1-139); assay: nanoDSF; remark: listed apart in the source
[7] = biological target: T1, G3BP1-NTF2 (residues 1-139); assay: nanoDSF; remark: listed apart in the source

B2: Caprin-1^356-386 peptide (peptide)
peptide: RQRVQDLMAQMQGPYNFIQDSMLDFENQTLD
dTm [5]: 4 °C
dTm [6]: 1.3 °C
dTm [7]: 1.5 °C

B4: GFP-Caprin-1^356-386 (domain or fragment)
chain: {GFP}-RQRVQDLMAQMQGPYNFIQDSMLDFENQTLD
Kd [1]: 4000 ± 2000 nM
Kd [2]: 1400 nM
dH [3]: -18 kcal/mol and -17 kcal/mol
Kd [4]: 15000 nM
dH [4]: -16 kcal/mol

Results, then the binder that gave them:

Kd [1]: 1500 ± 500 nM
Kd [2]: 500 nM
dH [3]: -17 ± 1 kcal/mol
Kd [4]: 3000 nM
dH [4]: -18 kcal/mol
B1: GFP-USP10^1-28 (domain or fragment)
chain: MALHSPQYIFGDFSPDEFNQFFVTPRSS

Kd [3]: ~20000 nM
B3: GFP-Caprin-1^356-386 L378A (domain or fragment)
chain: {GFP}-RQRVQDLMAQMQGPYNFIQDSMADFENQTLD
